These results are taken from US20240190962A1 (IMMUNOWAKE, published 2024).

In one assay the target is T1, CD4 on CD4+ T cells (UniProt P01730 26-458, limits assumed).
T1 construct: whole, on cells
As to the kind of experiment: FACS. On the technique in general: Flow cytometry measures light scatter and fluorescence of single cells or particles in a stream.

For assay [1], the target named is human IL-12 receptor complex (IL-12Rβ1, IL-12Rβ2) (human, UniProt P42701 24-662; Q99665 24-862). As to the kind of experiment: cell-based or functional assay.
Chain of human IL-12 receptor complex (IL-12Rβ1, IL-12Rβ2) (Q99665 24-862, chain 2 of 2, other chains not shown): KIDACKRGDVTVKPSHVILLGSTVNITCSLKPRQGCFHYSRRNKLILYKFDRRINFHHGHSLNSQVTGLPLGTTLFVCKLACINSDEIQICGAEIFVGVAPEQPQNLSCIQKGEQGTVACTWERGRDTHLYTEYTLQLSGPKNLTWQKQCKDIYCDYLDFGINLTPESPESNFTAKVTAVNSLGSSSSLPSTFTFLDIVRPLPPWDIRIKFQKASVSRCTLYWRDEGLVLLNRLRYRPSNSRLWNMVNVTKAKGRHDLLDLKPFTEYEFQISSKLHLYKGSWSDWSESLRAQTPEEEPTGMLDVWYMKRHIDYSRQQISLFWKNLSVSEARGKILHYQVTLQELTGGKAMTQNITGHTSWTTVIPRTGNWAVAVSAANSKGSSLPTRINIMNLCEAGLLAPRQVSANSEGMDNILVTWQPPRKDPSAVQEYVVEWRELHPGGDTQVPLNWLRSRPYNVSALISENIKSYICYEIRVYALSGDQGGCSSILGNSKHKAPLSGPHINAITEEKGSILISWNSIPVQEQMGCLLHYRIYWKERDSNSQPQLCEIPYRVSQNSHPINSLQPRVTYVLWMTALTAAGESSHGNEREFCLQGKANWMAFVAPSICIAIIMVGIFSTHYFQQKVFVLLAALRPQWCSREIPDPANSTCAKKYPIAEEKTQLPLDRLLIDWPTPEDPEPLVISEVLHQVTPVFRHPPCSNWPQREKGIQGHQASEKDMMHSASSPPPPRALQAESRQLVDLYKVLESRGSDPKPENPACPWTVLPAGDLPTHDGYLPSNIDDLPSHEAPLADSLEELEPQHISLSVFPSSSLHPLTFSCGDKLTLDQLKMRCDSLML

B1: Fab-IL-12(WT)-Fc-CD8 Ab (other)
light: DIQMTQTTSSLSASLGDRVTISCRASQDINNYLNWYQQKSDGTIKLLIYYTSRSYSGVPSRFSGSGSGTDYSLTISNRRQEDIATYFCQQGKTLPWTFGGGTKLEIKRTVAAPSVFIFPPSDEQLKSGTASVVCLLNNFYPREAKVQWKVDNALQSGNSQESVTEQDSKDSTYSLSSTLTLSKADYEKHKVYACEVTHQGLSSPVTKSFNRGEC
heavy 1: EVQLQQSGPELVKPGASVKMSCKASGYTFTDYYMKWVKQSHGKSLEWIGHINPNNDDTFYTQKFKGRATLTVDKSSSTAYMQLNSLTSEDSAVYYCVRDDYDGGWFAYWGQGTLVTVSSASTKGPSVFPLAPSSKSTSGGTAALGCLVKDYFPEPVTVSWNSGALTSGVHTFPAVLQSSGLYSLSSVVTVPSSSLGTQTYICNVNHKPSNTKVDKKVEPKSCDKTHTCPPCPAPEKKGGPSVFLFPPKPKDTLMISRTPEVTCVVVDVSHEDPEVKFNWYVDGVEVHNAKTKPREEQYNSTYRVVSVLTVLHQDWLNGKEYKCKVSNKALPAPIEKTISKAKGQPREPQVYVLPPSREEMTKNQVSLLCLVKGFYPSDIAVEWESNGQPENRYMTWPPVLDSDGSFFLYSKLTVDKSRWQQGNVFSCSVMHEALHNHYTQKSLSLSPGK
heavy 2: EVQLQQSGPELVKPGASVKMSCKASGYTFTDYYMKWVKQSHGKSLEWIGHINPNNDDTFYTQKFKGRATLTVDKSSSTAYMQLNSLTSEDSAVYYCVRDDYDGGWFAYWGQGTLVTVSSASTKGPSVFPLAPSSKSTSGGTAALGCLVKDYFPEPVTVSWNSGALTSGVHTFPAVLQSSGLYSLSSVVTVPSSSLGTQTYICNVNHKPSNTKVDKKVEPKSCDKPGSGIWELKKDVYVVELDWYPDAPGEMVVLTCDTPEEDGITWTLDQSSEVLGSGKTLTIQVKEFGDAGQYTCHKGGEVLSHSLLLLHKKEDGIWSTDILKDQKEPKNKTFLRCEAKNYSGRFTCWWLTTISTDLTFSVKSSRGSSDPQGVTCGAATLSAERVRGDNKEYEYSVECQEDSACPAAEESLPIEVMVDAVHKLKYENYTSSFFIRDIIKPDPPKNLQLKPLKNSRQVEVSWEYPDTWSTPHSYFSLTFCVQVQGKSKREKKDRVFTDKTSATVICRKNASISVRAQDRYYSSSWSEWASVPCSGGGGSGGGGSGGGGSGGGGSGRNLPVATPDPGMFPCLHHSQNLLRAVSNMLQKARQTLEFYPCTSEEIDHEDITKDKTSTVEACLPLELTKNESCLNSRETSFITNGSCLASRKTSFMMALCLSSIYEDLKMYQVEFKTMNAKLLMDPKRQIFLDQNMLAVIDELMQALNFNSETVPQKSSLEEPDFYKTKIKLCILLHAFRIRAVTIDRVMSYLNASDKTHTCPPCPAPEDEGGPSVFLFPPKPKDTLMISRTPEVTCVVVDVSHEDPEVKFNWYVDGVEVHNAKTKPREEQYNSTYRVVSVLTVLHQDWLNGKEYKCKVSNKALPAPIEKTISKAKGQPREPQVYVYPPSREEMTKNQVSLTCLVKGFYPSDIAVEWESNGQPENNYKTTPPVLDEDGSFALVSKLTVDKSRWQQGNVFSCSVMHEALHNHYTQKSLSLSPGK
notes: copies: 2 + 1 + 1
In the case of B1, the binding result with CD4 on CD4+ T cells is “no binding”. In assay [1], the “IL-12 biological activity (IFN-γ release), CD4+ T cells” value worked out at 21% and the “IL-12 biological activity (IFN-γ release), CD8+ T cells” value is 56%.

B2: Fab-IL-12(E59A/F60A)-Fc-CD8 Ab (other)
light: DIQMTQTTSSLSASLGDRVTISCRASQDINNYLNWYQQKSDGTIKLLIYYTSRSYSGVPSRFSGSGSGTDYSLTISNRRQEDIATYFCQQGKTLPWTFGGGTKLEIKRTVAAPSVFIFPPSDEQLKSGTASVVCLLNNFYPREAKVQWKVDNALQSGNSQESVTEQDSKDSTYSLSSTLTLSKADYEKHKVYACEVTHQGLSSPVTKSFNRGEC
heavy 1: EVQLQQSGPELVKPGASVKMSCKASGYTFTDYYMKWVKQSHGKSLEWIGHINPNNDDTFYTQKFKGRATLTVDKSSSTAYMQLNSLTSEDSAVYYCVRDDYDGGWFAYWGQGTLVTVSSASTKGPSVFPLAPSSKSTSGGTAALGCLVKDYFPEPVTVSWNSGALTSGVHTFPAVLQSSGLYSLSSVVTVPSSSLGTQTYICNVNHKPSNTKVDKKVEPKSCDKTHTCPPCPAPEKKGGPSVFLFPPKPKDTLMISRTPEVTCVVVDVSHEDPEVKFNWYVDGVEVHNAKTKPREEQYNSTYRVVSVLTVLHQDWLNGKEYKCKVSNKALPAPIEKTISKAKGQPREPQVYVLPPSREEMTKNQVSLLCLVKGFYPSDIAVEWESNGQPENRYMTWPPVLDSDGSFFLYSKLTVDKSRWQQGNVFSCSVMHEALHNHYTQKSLSLSPGK
heavy 2: EVQLQQSGPELVKPGASVKMSCKASGYTFTDYYMKWVKQSHGKSLEWIGHINPNNDDTFYTQKFKGRATLTVDKSSSTAYMQLNSLTSEDSAVYYCVRDDYDGGWFAYWGQGTLVTVSSASTKGPSVFPLAPSSKSTSGGTAALGCLVKDYFPEPVTVSWNSGALTSGVHTFPAVLQSSGLYSLSSVVTVPSSSLGTQTYICNVNHKPSNTKVDKKVEPKSCDKPGSGIWELKKDVYVVELDWYPDAPGEMVVLTCDTPEEDGITWTLDQSSEVLGSGKTLTIQVKAAGDAGQYTCHKGGEVLSHSLLLLHKKEDGIWSTDILKDQKEPKNKTFLRCEAKNYSGRFTCWWLTTISTDLTFSVKSSRGSSDPQGVTCGAATLSAERVRGDNKEYEYSVECQEDSACPAAEESLPIEVMVDAVHKLKYENYTSSFFIRDIIKPDPPKNLQLKPLKNSRQVEVSWEYPDTWSTPHSYFSLTFCVQVQGKSKREKKDRVFTDKTSATVICRKNASISVRAQDRYYSSSWSEWASVPCSGGGGSGGGGSGGGGSGGGGSGRNLPVATPDPGMFPCLHHSQNLLRAVSNMLQKARQTLEFYPCTSEEIDHEDITKDKTSTVEACLPLELTKNESCLNSRETSFITNGSCLASRKTSFMMALCLSSIYEDLKMYQVEFKTMNAKLLMDPKRQIFLDQNMLAVIDELMQALNFNSETVPQKSSLEEPDFYKTKIKLCILLHAFRIRAVTIDRVMSYLNASDKTHTCPPCPAPEDEGGPSVFLFPPKPKDTLMISRTPEVTCVVVDVSHEDPEVKFNWYVDGVEVHNAKTKPREEQYNSTYRVVSVLTVLHQDWLNGKEYKCKVSNKALPAPIEKTISKAKGQPREPQVYVYPPSREEMTKNQVSLTCLVKGFYPSDIAVEWESNGQPENNYKTTPPVLDEDGSFALVSKLTVDKSRWQQGNVFSCSVMHEALHNHYTQKSLSLSPGK
B2: in the assay with CD4 on CD4+ T cells, the binding result is “no binding”. Moreover, in assay [1], the “IL-12 biological activity (IFN-γ release), CD4+ T cells” value amounted to 0% and the “IL-12 biological activity (IFN-γ release), CD8+ T cells” value is 11%.

B3: Fab-IL-12(E59A)-Fc-CD8 Ab (other)
light: DIQMTQTTSSLSASLGDRVTISCRASQDINNYLNWYQQKSDGTIKLLIYYTSRSYSGVPSRFSGSGSGTDYSLTISNRRQEDIATYFCQQGKTLPWTFGGGTKLEIKRTVAAPSVFIFPPSDEQLKSGTASVVCLLNNFYPREAKVQWKVDNALQSGNSQESVTEQDSKDSTYSLSSTLTLSKADYEKHKVYACEVTHQGLSSPVTKSFNRGEC
heavy 1: EVQLQQSGPELVKPGASVKMSCKASGYTFTDYYMKWVKQSHGKSLEWIGHINPNNDDTFYTQKFKGRATLTVDKSSSTAYMQLNSLTSEDSAVYYCVRDDYDGGWFAYWGQGTLVTVSSASTKGPSVFPLAPSSKSTSGGTAALGCLVKDYFPEPVTVSWNSGALTSGVHTFPAVLQSSGLYSLSSVVTVPSSSLGTQTYICNVNHKPSNTKVDKKVEPKSCDKTHTCPPCPAPEKKGGPSVFLFPPKPKDTLMISRTPEVTCVVVDVSHEDPEVKFNWYVDGVEVHNAKTKPREEQYNSTYRVVSVLTVLHQDWLNGKEYKCKVSNKALPAPIEKTISKAKGQPREPQVYVLPPSREEMTKNQVSLLCLVKGFYPSDIAVEWESNGQPENRYMTWPPVLDSDGSFFLYSKLTVDKSRWQQGNVFSCSVMHEALHNHYTQKSLSLSPGK
heavy 2: EVQLQQSGPELVKPGASVKMSCKASGYTFTDYYMKWVKQSHGKSLEWIGHINPNNDDTFYTQKFKGRATLTVDKSSSTAYMQLNSLTSEDSAVYYCVRDDYDGGWFAYWGQGTLVTVSSASTKGPSVFPLAPSSKSTSGGTAALGCLVKDYFPEPVTVSWNSGALTSGVHTFPAVLQSSGLYSLSSVVTVPSSSLGTQTYICNVNHKPSNTKVDKKVEPKSCDKPGSGIWELKKDVYVVELDWYPDAPGEMVVLTCDTPEEDGITWTLDQSSEVLGSGKTLTIQVKAFGDAGQYTCHKGGEVLSHSLLLLHKKEDGIWSTDILKDQKEPKNKTFLRCEAKNYSGRFTCWWLTTISTDLTFSVKSSRGSSDPQGVTCGAATLSAERVRGDNKEYEYSVECQEDSACPAAEESLPIEVMVDAVHKLKYENYTSSFFIRDIIKPDPPKNLQLKPLKNSRQVEVSWEYPDTWSTPHSYFSLTFCVQVQGKSKREKKDRVFTDKTSATVICRKNASISVRAQDRYYSSSWSEWASVPCSGGGGSGGGGSGGGGSGGGGSGRNLPVATPDPGMFPCLHHSQNLLRAVSNMLQKARQTLEFYPCTSEEIDHEDITKDKTSTVEACLPLELTKNESCLNSRETSFITNGSCLASRKTSFMMALCLSSIYEDLKMYQVEFKTMNAKLLMDPKRQIFLDQNMLAVIDELMQALNFNSETVPQKSSLEEPDFYKTKIKLCILLHAFRIRAVTIDRVMSYLNASDKTHTCPPCPAPEDEGGPSVFLFPPKPKDTLMISRTPEVTCVVVDVSHEDPEVKFNWYVDGVEVHNAKTKPREEQYNSTYRVVSVLTVLHQDWLNGKEYKCKVSNKALPAPIEKTISKAKGQPREPQVYVYPPSREEMTKNQVSLTCLVKGFYPSDIAVEWESNGQPENNYKTTPPVLDEDGSFALVSKLTVDKSRWQQGNVFSCSVMHEALHNHYTQKSLSLSPGK
notes: copies: 2 + 1 + 1
For the molecule B3, the binding result in the assay with CD4 on CD4+ T cells is on record as “no binding”. In assay [1], the “IL-12 biological activity (IFN-γ release), CD4+ T cells” value turned out to be 2.1% and the “IL-12 biological activity (IFN-γ release), CD8+ T cells” value was determined as 24.2%.
